# Results from paper doi:10.1101/2023.08.01.551421 (bioRxiv, 2023).
# Substitutions are numbered along the chain they refer to. In names and notes the source's numbering stands.
# T1: human guanylate-binding protein 1 (GBP1), wild type, non-farnesylated (human), P32455
# T1 chain: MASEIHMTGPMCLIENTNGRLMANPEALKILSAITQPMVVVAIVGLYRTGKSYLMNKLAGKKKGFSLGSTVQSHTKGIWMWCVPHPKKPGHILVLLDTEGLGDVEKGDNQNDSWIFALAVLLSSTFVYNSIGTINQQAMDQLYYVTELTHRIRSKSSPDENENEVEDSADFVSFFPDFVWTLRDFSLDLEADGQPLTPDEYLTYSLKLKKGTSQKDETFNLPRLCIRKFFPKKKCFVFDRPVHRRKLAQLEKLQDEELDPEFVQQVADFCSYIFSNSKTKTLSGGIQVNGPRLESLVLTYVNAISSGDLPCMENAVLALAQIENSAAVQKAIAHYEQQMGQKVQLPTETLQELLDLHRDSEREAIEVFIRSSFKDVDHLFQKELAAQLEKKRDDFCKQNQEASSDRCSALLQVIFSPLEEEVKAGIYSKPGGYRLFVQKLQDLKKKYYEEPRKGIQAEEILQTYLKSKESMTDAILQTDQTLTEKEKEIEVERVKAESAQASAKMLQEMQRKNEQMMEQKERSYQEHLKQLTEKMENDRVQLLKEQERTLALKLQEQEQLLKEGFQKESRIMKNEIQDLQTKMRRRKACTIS
# T2: human guanylate-binding protein 1 (GBP1), wild type, farnesylated (human), P32455
# T2 chain: T1 chain
# B1: human guanylate-binding protein 1 (GBP1), wild type, non-farnesylated, P32455 1-592 (natural protein)
# chain: T1 chain
# B2: human guanylate-binding protein 1 (GBP1), wild type, farnesylated, P32455 (natural protein)
# chain: T1 chain
# modifications: here or on the partner: farnesyl moiety, C-terminal (CaaX box motif); farnesyl moiety, C-terminal (CaaX box motif)
# B3: GBP1 D199K, non-farnesylated (natural protein)
# chain: T1 chain with D199K
# B4: GBP1 D199A, farnesylated (natural protein)
# chain: T1 chain with D199A
# modifications: farnesyl moiety, C-terminal (CaaX box motif)
# B5: GBP1 D199K, farnesylated (natural protein)
# chain: T1 chain with D199K
# modifications: farnesyl moiety, C-terminal (CaaX box motif)
# B6: GBP1 Δ207-213 variant, non-farnesylated (natural protein)
# chain: MASEIHMTGPMCLIENTNGRLMANPEALKILSAITQPMVVVAIVGLYRTGKSYLMNKLAGKKKGFSLGSTVQSHTKGIWMWCVPHPKKPGHILVLLDTEGLGDVEKGDNQNDSWIFALAVLLSSTFVYNSIGTINQQAMDQLYYVTELTHRIRSKSSPDENENEVEDSADFVSFFPDFVWTLRDFSLDLEADGQPLTPDEYLTYSLGGGSGGGSQKDETFNLPRLCIRKFFPKKKCFVFDRPVHRRKLAQLEKLQDEELDPEFVQQVADFCSYIFSNSKTKTLSGGIQVNGPRLESLVLTYVNAISSGDLPCMENAVLALAQIENSAAVQKAIAHYEQQMGQKVQLPTETLQELLDLHRDSEREAIEVFIRSSFKDVDHLFQKELAAQLEKKRDDFCKQNQEASSDRCSALLQVIFSPLEEEVKAGIYSKPGGYRLFVQKLQDLKKKYYEEPRKGIQAEEILQTYLKSKESMTDAILQTDQTLTEKEKEIEVERVKAESAQASAKMLQEMQRKNEQMMEQKERSYQEHLKQLTEKMENDRVQLLKEQERTLALKLQEQEQLLKEGFQKESRIMKNEIQDLQTKMRRRKACTIS
# B7: GBP1 Δ207-213 variant, farnesylated (natural protein)
# chain: B6 chain
# modifications: farnesyl moiety, C-terminal (CaaX box motif)
# B8: GBP1 Δ207-216 variant, farnesylated (natural protein)
# chain: MASEIHMTGPMCLIENTNGRLMANPEALKILSAITQPMVVVAIVGLYRTGKSYLMNKLAGKKKGFSLGSTVQSHTKGIWMWCVPHPKKPGHILVLLDTEGLGDVEKGDNQNDSWIFALAVLLSSTFVYNSIGTINQQAMDQLYYVTELTHRIRSKSSPDENENEVEDSADFVSFFPDFVWTLRDFSLDLEADGQPLTPDEYLTYSLGGGSETFNLPRLCIRKFFPKKKCFVFDRPVHRRKLAQLEKLQDEELDPEFVQQVADFCSYIFSNSKTKTLSGGIQVNGPRLESLVLTYVNAISSGDLPCMENAVLALAQIENSAAVQKAIAHYEQQMGQKVQLPTETLQELLDLHRDSEREAIEVFIRSSFKDVDHLFQKELAAQLEKKRDDFCKQNQEASSDRCSALLQVIFSPLEEEVKAGIYSKPGGYRLFVQKLQDLKKKYYEEPRKGIQAEEILQTYLKSKESMTDAILQTDQTLTEKEKEIEVERVKAESAQASAKMLQEMQRKNEQMMEQKERSYQEHLKQLTEKMENDRVQLLKEQERTLALKLQEQEQLLKEGFQKESRIMKNEIQDLQTKMRRRKACTIS
# modifications: farnesyl moiety, C-terminal (CaaX box motif)
# B9: GBP1 Δ207-216 variant, non-farnesylated (natural protein)
# chain: B8 chain
# B10: GBP1 D199A, non-farnesylated (natural protein)
# chain: T1 chain with D199A
# Key:
# [1] = target: GBP1 M139R, non-farnesylated (human) (UniProt P32455); assay: SEC
# [2] = target: GBP1 M139E, non-farnesylated (human) (UniProt P32455); assay: SEC
# [3] = target: T1, human guanylate-binding protein 1 …; assay: cross-linking; details: remark: other sources report otherwise
# [4] = target: T1, human guanylate-binding protein 1 …; assay: GTP hydrolysis assay; details: remark: other sources report otherwise
# [5] = target: T2, human guanylate-binding protein 1 …; assay: cryo-EM structure; details: remark: other sources report otherwise
# [6] = target: the molecule itself; assay: cross-linking
# [7] = target: the molecule itself; assay: GTP hydrolysis assay
# [8] = target: the molecule itself; assay: light scattering-based polymerization assay
molecule,measurement,setting,value
"GBP1 M139R, non-farnesylated (from UniProt P32455 1-592) (natural protein)",stoichiometry N,[1],2
"GBP1 M139E, non-farnesylated (from UniProt P32455 1-592) (natural protein)",stoichiometry N,[2],2
B1,stoichiometry N,[3],2
same,Kd,[4],1900 nM
B2,subunits (outstretched GBP1 dimers) in one planar disk,[5],30
B3,binding result,[6],binds
B4,binding result,[6],binds
B5,binding result,[6],binds
B6,fold lower dimerization affinity than wild-type,[7],3 fold
same,stoichiometry N,[6],2
B7,binding result,[8],binds
B8,binding result,[8],binds
B9,fold lower dimerization affinity than wild-type,[7],1.8 fold
same,stoichiometry N,[6],2
B10,binding result,[6],binds
